Source: the supplement of paper PMC6757056
± gives the standard deviation of the averaged measurements.

B1: library; a variant is named by its letters at N, in order (parent)
chain: GCUGUCACCGAGAAACUGUGAAGUAUAUCUUAAACCUGGGCACUUAAAAGAUAUAUGGAGUUAGUAGUGCAACCUGCUCGGUCUGAUGAGUCCNNNNNNGGACGAAACAGC

Key:
cyclic di-GMP [1] = variants of: B1; experiment: normalized RNA/DNA level without ligand (relative to sTRSVctl = 100) (log10 (% of sTRSVctl)); HEK293T; ligand: cyclic di-GMP (c-di-GMP-II aptamer); higher = less ribozyme self-cleavage, higher mRNA level; conditions: reporter: mCherry (pCS4076), ligand present: no
In short: (§1)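 Ribozyme switch library plasmids with mCherry reporters (eGFP in certain ligand experiments) went into HEK293T cells at 4 µg per 6-well well. Where ligand was used, it was applied 1 h before transfection, and total RNA was extracted with EDTA 72 h later for reverse transcription, amplification, barcoding and sequencing. RNA level is the RNA-to-DNA read ratio normalized to a spiked-in non-cleaving sequence or to the leading sequences, then scaled and log-transformed. Scaling was ×100 with log10, the leading set comprised 25 sequences, and the cutoff was ≥100 DNA reads.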

cyclic di-GMP [2] = variants of: B1; experiment: normalized RNA/DNA level with ligand (relative to sTRSVctl = 100) (log10 (% of sTRSVctl)); HEK293T; ligand: cyclic di-GMP (c-di-GMP-II aptamer); ligand concentration (+) RNA-Seq: 1 mM; higher = less ribozyme self-cleavage, higher mRNA level; conditions: reporter: mCherry (pCS4076), ligand present: yes
In short: as §1

cyclic di-GMP [3] = variants of: B1; experiment: FACS-Seq fitted mean relative fluorescence mCherry/BFP without ligand (log10 relative fluorescence); HEK293T; ligand: cyclic di-GMP (c-di-GMP-II aptamer); higher = higher reporter protein expression; conditions: ligand present: no
In short: (§2)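 Sorting into 6 bins by mCherry/BFP followed 48 h of incubation with or without ligand. The cells were enriched HEK293T libraries lentivirally bearing an mCherry reporter with the ribozyme switch and an EF1α-BFP marker, and bin genomic DNA was PCR-amplified, barcoded and sequenced on MiSeq. Fluorescence is the fitted normal mean of the bin counts. Means were fitted on log10(mCherry/BFP), scaled to five spiked-in control ribozymes.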

cyclic di-GMP [4] = variants of: B1; experiment: FACS-Seq fitted mean relative fluorescence mCherry/BFP with ligand (log10 relative fluorescence); HEK293T; ligand: cyclic di-GMP (c-di-GMP-II aptamer); ligand concentration (+) FACS-Seq: 1 mM; higher = higher reporter protein expression; conditions: ligand present: yes
In short: as §2

Variant	normalized RNA/DNA level without ligand (log10) (cyclic di-GMP [1])	normalized RNA/DNA level with ligand (log10) (cyclic di-GMP [2])	FACS-Seq fitted mean (log10) (cyclic di-GMP [3])	FACS-Seq fitted mean (log10) (cyclic di-GMP [4])
CAACGC	1.757 ± 0.014	1.84 ± 0.11	–	–
CAACGA	1.56 ± 0.063	1.73 ± 0.11	–	–
CAACGU	1.67 ± 0.025	1.82 ± 0.096	–	–
CAACGG	1.671 ± 0.012	1.77 ± 0.061	–	–
CAACUC	1.685 ± 0.011	1.82 ± 0.086	–	–
CAACUU	1.49 ± 0.093	1.69 ± 0.078	–	–
CAACUA	1.39 ± 0.069	1.6 ± 0.15	–	–
CAACUG	1.75 ± 0.034	1.82 ± 0.13	–	–
CAAACG	1.776 ± 0.013	1.84 ± 0.059	–	–
CAAACU	1.54 ± 0.045	1.68 ± 0.072	–	–
AUGGGU	1.54 ± 0.072	1.74 ± 0.07	-0.563 ± 0.083	-0.3945 ± 0.00061
GAAAGG	1.56 ± 0.041	1.72 ± 0.12	–	–
GAAAGC	1.59 ± 0.029	1.72 ± 0.068	–	–
CAAAAG	1.656 ± 0.0082	1.77 ± 0.14	–	–
CAAAGC	1.717 ± 0.011	1.84 ± 0.091	–	–
CAAAGG	1.59 ± 0.033	1.75 ± 0.081	–	–
AUUCCA	1.7 ± 0.044	1.88 ± 0.14	-0.182 ± 0.1	-0.0711 ± 0.041
AUUCCC	1.8 ± 0.045	1.89 ± 0.11	-0.55 ± 0.097	-0.405 ± 0.018
UAAACU	1.71 ± 0.061	1.85 ± 0.15	–	–
UAAACC	1.77 ± 0.027	1.85 ± 0.076	–	–
UAAACG	1.747 ± 0.0073	1.85 ± 0.068	–	–
AUUGUA	1.56 ± 0.031	1.71 ± 0.097	-0.397 ± 0.017	0.0499 ± 0.075

Variant	normalized RNA/DNA level without ligand (log10) (cyclic di-GMP [1])	normalized RNA/DNA level with ligand (log10) (cyclic di-GMP [2])	FACS-Seq fitted mean (log10) (cyclic di-GMP [3])	FACS-Seq fitted mean (log10) (cyclic di-GMP [4])
AUGGUA	1.46 ± 0.066	1.65 ± 0.098	-0.519 ± 0.1	-0.143 ± 0.024
AUGGUG	1.56 ± 0.1	1.7 ± 0.094	-0.341 ± 0.087	-0.113 ± 0.021
CUGUAU	1.56 ± 0.039	1.72 ± 0.07	-0.00585 ± 0.097	0.2727 ± 0.0019
AUUGCC	1.776 ± 0.0015	1.92 ± 0.12	-0.0783 ± 0.14	0.207 ± 0.0046
CUGUCA	1.52 ± 0.13	1.68 ± 0.13	-0.00992 ± 0.023	0.247 ± 0.011
CUUACA	1.55 ± 0.067	1.72 ± 0.077	-0.457 ± 0.02	-0.154 ± 0.088
GUGUUG	1.59 ± 0.068	1.74 ± 0.12	-0.394 ± 0.069	-0.183 ± 0.047
GUGUUA	1.58 ± 0.027	1.77 ± 0.092	-0.147 ± 0.075	0.207 ± 0.022
GUGUUC	1.39 ± 0.14	1.57 ± 0.14	-0.72254 ± 0.00049	-0.527 ± 0.032
GAACAA	1.55 ± 0.03	1.7 ± 0.14	–	–
GAACAC	1.641 ± 0.014	1.78 ± 0.1	–	–
GAACAU	1.64 ± 0.033	1.78 ± 0.097	–	–
GAAAAC	1.59 ± 0.016	1.74 ± 0.063	–	–
UUUCGA	1.82 ± 0.041	1.89 ± 0.079	0.0382 ± 0.21	0.251 ± 0.061
GUGUGC	1.4 ± 0.12	1.63 ± 0.09	-0.9793 ± 0.0011	-0.724 ± 0.0079
GAAACC	1.722 ± 0.0059	1.85 ± 0.1	–	–
GAAACU	1.63 ± 0.035	1.79 ± 0.1	–	–
GAAACG	1.61 ± 0.053	1.77 ± 0.069	–	–
AUUAAA	1.53 ± 0.048	1.71 ± 0.12	-0.425 ± 0.11	-0.0171 ± 0.053
CUUAAU	1.55 ± 0.096	1.71 ± 0.1	-0.0367 ± 0.24	0.142 ± 0.073
CUUAAA	1.37 ± 0.072	1.53 ± 0.16	-0.598 ± 0.053	-0.238 ± 0.21
AUGUUA	1.523 ± 0.0094	1.73 ± 0.1	-0.342 ± 0.13	-0.0703 ± 0.042

Variant	normalized RNA/DNA level without ligand (log10) (cyclic di-GMP [1])	normalized RNA/DNA level with ligand (log10) (cyclic di-GMP [2])	FACS-Seq fitted mean (log10) (cyclic di-GMP [3])	FACS-Seq fitted mean (log10) (cyclic di-GMP [4])
AUUCGC	1.7768 ± 0.00017	1.91 ± 0.11	-0.123 ± 0.015	0.194 ± 0.063
AUUCGG	1.7 ± 0.019	1.82 ± 0.2	-0.4 ± 0.23	0.0339 ± 0.063
UAAGCC	1.78 ± 0.024	1.88 ± 0.091	–	–
UAAGCA	1.75 ± 0.018	1.87 ± 0.082	–	–
AUUACG	1.67 ± 0.032	1.83 ± 0.072	-0.439 ± 0.014	-0.0914 ± 0.065
GUGGCC	1.86 ± 0.033	1.97 ± 0.047	0.168 ± 0.017	0.366 ± 0.0082
AAAGAG	1.44 ± 0.097	1.63 ± 0.1	–	–
AAAGAA	1.34 ± 0.14	1.55 ± 0.1	–	–
CUUAUA	1.44 ± 0.09	1.65 ± 0.088	-0.487 ± 0.096	-0.184 ± 0.028
GUUCGU	1.66 ± 0.01	1.8 ± 0.074	-0.35 ± 0.027	0.0521 ± 0.011
GUUCGA	1.6 ± 0.018	1.75 ± 0.12	-0.345 ± 0.023	0.045 ± 0.055
UUUUCG	1.78 ± 0.035	1.9 ± 0.12	-0.162 ± 0.14	0.00347 ± 0.15
CAAGAC	1.64 ± 0.06	1.8 ± 0.082	–	–
CAAGAG	1.6 ± 0.023	1.78 ± 0.14	–	–
CAAGAU	1.6 ± 0.048	1.79 ± 0.086	–	–
GUUCCA	1.65 ± 0.022	1.81 ± 0.12	-0.877 ± 0.03	-0.674 ± 0.016
GUUACU	1.75 ± 0.027	1.82 ± 0.13	-0.232 ± 0.064	0.0991 ± 0.015
AUUAUC	1.72 ± 0.062	1.84 ± 0.13	-0.473 ± 0.04	-0.167 ± 0.081
AUUUAA	1.58 ± 0.074	1.75 ± 0.078	-0.437 ± 0.065	-0.0871 ± 0.058
AAAGCC	1.7 ± 0.025	1.84 ± 0.13	–	–
AAAGCA	1.656 ± 0.0051	1.77 ± 0.11	–	–
GUUUGA	1.56 ± 0.086	1.71 ± 0.042	-0.499 ± 0.039	-0.212 ± 0.018

Variant	normalized RNA/DNA level without ligand (log10) (cyclic di-GMP [1])	normalized RNA/DNA level with ligand (log10) (cyclic di-GMP [2])	FACS-Seq fitted mean (log10) (cyclic di-GMP [3])	FACS-Seq fitted mean (log10) (cyclic di-GMP [4])
GUUUGG	1.62 ± 0.068	1.8 ± 0.13	-0.428 ± 0.018	-0.249 ± 0.089
GUUUGC	1.66 ± 0.043	1.79 ± 0.15	-0.138 ± 0.079	0.164 ± 0.012
GUUCAU	1.69 ± 0.027	1.85 ± 0.092	-0.4248 ± 0.00049	-0.137 ± 0.0014
AUUGGA	1.45 ± 0.099	1.62 ± 0.1	-0.489 ± 0.028	-0.102 ± 0.071
AUUGGU	1.58 ± 0.052	1.78 ± 0.14	-0.24 ± 0.092	0.0192 ± 0.053
CAAAUG	1.64 ± 0.017	1.82 ± 0.068	–	–
CAAAUC	1.61 ± 0.034	1.76 ± 0.091	–	–
UAACCA	1.74 ± 0.036	1.86 ± 0.13	–	–
UAACCC	1.77 ± 0.021	1.9 ± 0.08	–	–
UAACCG	1.72 ± 0.12	1.81 ± 0.13	–	–
UAACCU	1.71 ± 0.031	1.86 ± 0.072	–	–
UAAAGG	1.635 ± 0.0018	1.78 ± 0.088	–	–
UAAAGC	1.676 ± 0.0024	1.82 ± 0.1	–	–
UAAAGU	1.54 ± 0.076	1.77 ± 0.048	–	–
AUUGAA	1.48 ± 0.079	1.66 ± 0.031	-0.159 ± 0.14	0.152 ± 0.0043
CUUUCA	1.42 ± 0.11	1.66 ± 0.051	-0.391 ± 0.0064	-0.114 ± 0.028
CUUUCC	1.82 ± 0.038	1.93 ± 0.11	0.0673 ± 0.015	0.163 ± 0.01
CUUUCU	1.65 ± 0.072	1.77 ± 0.095	-0.275 ± 0.072	0.0435 ± 0.082
UUUCUU	1.773 ± 0.014	1.89 ± 0.066	0.255 ± 0.19	0.428 ± 0.021
UUUCUA	1.75 ± 0.065	1.88 ± 0.11	-0.278 ± 0.011	-0.016 ± 0.035
CUUCAU	1.58 ± 0.044	1.75 ± 0.12	-0.264 ± 0.079	-0.136 ± 0.066
